Measured values: the supplement of paper PMC10724198

Columns and labels:
Saccharomyces cerevisiae [1] = test: protein stability index of tFT-peptide fusion in deletion strain of DAS1 (PSI (0-1 scale)); higher = more stable (slower turnover)
Protocol: (§1)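 MPS profiling in S. cerevisiae of two library types built from selected 12-aa C-degron peptides (IN1, IN2, LN1, LN3, VN2, R1-R5, W1-W3, Atg1 and Rpa12 C-termini): saturation mutagenesis libraries and C-terminal +1 capping libraries (13 aa). Each peptide is fused to the C-terminus of a sfGFP-mCherry timer, after a GGGS linker. Cells are FACS-sorted into 8 mCherry/sfGFP bins and sequenced. PSI runs from 0 (unstable) to 1 (stable), measured once in wild type and in the das1Δ or doa10Δ background.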

Saccharomyces cerevisiae [2] = test: protein stability index of tFT-peptide fusion in wild type (PSI (0-1 scale)); higher = more stable (slower turnover); settings: genetic background: wild type
Protocol: as §1
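For protein stability index of tFT-peptide fusion in deletion strain of DAS1 in this document: PSI is a weighted mean of each variant's read distribution over the sorted stability bins, computed only for variants having over 10 reads in total.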
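For protein stability index of tFT-peptide fusion in wild type in this document: PSI derived as read-weighted mean over the 8 sorting bins, only variants exceeding 10 total reads kept, mCherry placed adjacent to the peptide and sfGFP distal.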

Row | Sequence | protein stability index (Saccharomyces cerevisiae [1]) | protein stability index (Saccharomyces cerevisiae [2])
1 | CTSCGYKFWTNN | 0.75 | 0.299
2 | CTSCGYPFRTNN | 0.723 | 0.677
3 | CTSCVYKFRTNN | 0.675 | 0.164
4 | CTSCWYKFRTNN | 0.672 | 0.168
5 | ESLAASFWRVVG | 0.689 | 0.136
6 | FKHKKGQKQKIN | 0.586 | 0.123
7 | FSMAWTFRYWVN | 0.456 | 0.0458
8 | FSMFWTFRYWVN | 0.403 | 0.0733
9 | FSMRCTFRYWVN | 0.522 | 0.0458
10 | FSMRFTFRYWVN | 0.501 | 0.0475
11 | FSMRITFRYWVN | 0.336 | 0.0393
12 | FSMRRTFRYWVN | 0.616 | 0.102
13 | FSMRWTFAYWVN | 0.39 | 0.047
14 | FSMRWTFRAWVN | 0.425 | 0.104
15 | FSMRWTFRDWVN | 0.724 | 0.595
16 | FSMRWTFRQWVN | 0.427 | 0.109
17 | FSMRWTFRYFVN | 0.631 | 0.0378
18 | FSMRWTFRYGVN | 0.527 | 0.338
19 | FSMRWTFRYKVN | 0.691 | 0.0899
20 | FSMRWTFTYWVN | 0.389 | 0.0917
21 | FSMRWTMRYWVN | 0.482 | 0.0449
22 | FSMRWTSRYWVN | 0.598 | 0.105
23 | FSMRWTTRYWVN | 0.566 | 0.0528

Row | Sequence | protein stability index (Saccharomyces cerevisiae [1]) | protein stability index (Saccharomyces cerevisiae [2])
24 | FSMRYTFRYWVN | 0.648 | 0.0639
25 | FSRRWTFRYWVN | 0.636 | 0.0509
26 | GDKRNHLIKLLN | 0.613 | 0.158
27 | GSMRWTFRYWVN | 0.677 | 0.0781
28 | HLIQPLPVQFLN | 0.713 | 0.13
29 | IDKRNHLIKLLN | 0.584 | 0.143
30 | KKHCKGQKQKIN | 0.637 | 0.13
31 | KKHEKGQKQKIN | 0.603 | 0.0983
32 | KKHKIGQKQKIN | 0.563 | 0.142
33 | KKHKKDQKQKIN | 0.606 | 0.0671
34 | KKHKKGIKQKIN | 0.588 | 0.0645
35 | KKHKKGMKQKIN | 0.659 | 0.0523
36 | KKHKKGNKQKIN | 0.601 | 0.0792
37 | KKHKKGQCQKIN | 0.801 | 0.16
38 | KKHKKGQHQKIN | 0.579 | 0.0824
39 | KKHKKGQIQKIN | 0.569 | 0.109
40 | KKHKKGQKLKIN | 0.562 | 0.114
41 | KKHKKGQKQFIN | 0.558 | 0.209
42 | KKHKKGQKQHIN | 0.648 | 0.435
43 | KKHKKGQKQKINA | 0.655 | 0.259
44 | KKHKKGQKQKIQ | 0.594 | 0.37
45 | KKHKKGQKQKSN | 0.615 | 0.553
46 | KKHKKGQKQWIN | 0.657 | 0.553

Row | Sequence | protein stability index (Saccharomyces cerevisiae [1]) | protein stability index (Saccharomyces cerevisiae [2])
47 | KKHKKGQKYKIN | 0.634 | 0.199
48 | KKHKKGRKQKIN | 0.586 | 0.0973
49 | KKHKKGVKQKIN | 0.743 | 0.128
50 | KKLKKGQKQKIN | 0.594 | 0.0797
51 | KKNKKGQKQKIN | 0.598 | 0.141
52 | KVHKKGQKQKIN | 0.64 | 0.0686
53 | KWHKKGQKQKIN | 0.562 | 0.108
54 | LGILRQKMNHQN | 0.685 | 0.141
55 | LKILKQKMNHQN | 0.68 | 0.222
56 | LKILRFKMNHQN | 0.667 | 0.201
57 | LKILRPKMNHQN | 0.669 | 0.541
58 | LKILRQKMAHQN | 0.673 | 0.178
59 | LKILRQKMEHQN | 0.671 | 0.404
60 | LKILRQKMNHDN | 0.671 | 0.39
61 | LKILRQKMNHEN | 0.671 | 0.237
62 | LKILRQKMNHQNE | 0.656 | 0.652
63 | LKILRQKMNHQNL | 0.697 | 0.672
64 | LKILRQKMNHQNN | 0.671 | 0.585
65 | LKILRQKMNHQT | 0.671 | 0.252
66 | LKILRQKMNHVN | 0.666 | 0.206
67 | LKILRQKMNHYN | 0.657 | 0.223
68 | LKILRQKMNIQN | 0.686 | 0.214
69 | LKILRQKMNSQN | 0.672 | 0.213

Row | Sequence | protein stability index (Saccharomyces cerevisiae [1]) | protein stability index (Saccharomyces cerevisiae [2])
70 | LKILRQKMPHQN | 0.692 | 0.681
71 | LKILRQKPNHQN | 0.675 | 0.68
72 | LKILRSKMNHQN | 0.666 | 0.208
73 | LKILRWKMNHQN | 0.658 | 0.209
74 | LKILRYKMNHQN | 0.64 | 0.181
75 | LKILSQKMNHQN | 0.681 | 0.232
76 | LKKLRQKMNHQN | 0.68 | 0.235
77 | LKNLRQKMNHQN | 0.678 | 0.208
78 | LVDYLSCVACIN | 0.354 | 0.21
79 | LVFYLSCVACIN | 0.0573 | 0.016
80 | LVIYLSCVACIN | 0.0377 | 0.0156
81 | LVNYLSCVACIN | 0.259 | 0.0691
82 | LVVALSCVACIN | 0.0802 | 0.0223
83 | LVVELSCVACIN | 0.0632 | 0.0174
84 | LVVFLSCVACIN | 0.0386 | 0.0196
85 | LVVQLSCVACIN | 0.0857 | 0.0253
86 | LVVYGSCVACIN | 0.305 | 0.245
87 | LVVYLKCVACIN | 0.0351 | 0.0164
88 | LVVYLSCHACIN | 0.0466 | 0.0126
89 | LVVYLSCRACIN | 0.0311 | 0.0228
